The source of these data is patent US20240377400A1, “METHODS FOR TREATING A SUBTYPE OF COLORECTAL CANCER” (Cornell University, priority 2021, published 2024).

The test system of assay [1] is MTO-sgPrkci/sgPrkcz tumors. Nature of the assay: Subcutaneous MTO-sgPrkci/sgPrkcz tumors in syngeneic C57BL/6J mice treated with PEGPH20. The class given is in vivo, mouse. Here is the method: FIGS. 8F-8J illustrate subcutaneous injection of sgPrkci/Prkcz and sgC MTOs in WT mice. Mice were treated twice a week with Veh or PEGPH20 0.0375 mg/kg for 3 weeks (MTOs: sgC n=10, sgC PEGPH20-treated n=10, sgPrkci/Prkcz n=10, and sgPrkci/Prkcz PEGPH20-treated n=8). Experimental design (F); Immunohistochemistry (IHC) for HA, Masson's trichrome, and αSMA (G) staining quantification (H); tumor volume (I) and tumor weight (J). Scale bars, 100 μm.
(§1) For colonoscopy-guided orthotopic injection in the colon submucosa using mouse tumor organoids (MTOs), a 10 μl organoid suspension of equivalent to 40-50 MTOs admixed with 10% Matrigel (Corning) was directly injected into the colonic submucosa of 7 weeks old C57BL/6 mice. 4 weeks after implantation, tumors were collected and analyzed histologically. Orthotopic tumor sizes were measured by caliper after mice were sacrificed. For xenografts using MTOs, a 100 μl cell suspension of equivalent to 0.5×10^6 cells of sgPrkci/Prkcz or sgC MTOs admixed with 30% Matrigel (Corning) was directly injected subcutaneously into the right flank of 7 weeks old C57BL/6 mice. Tumors were allowed to grow for 14 days, and mice were randomly divided to receive vehicle, n=20, or PEGPH20 (0.0375 mg/kg, 2 days each week) via retro-orbital injection, n=18. Tumors were measured twice a week. Mice were euthanized three weeks after treatment and tumors were analyzed histologically. For the combination therapy of anti-PD-L1 (Clone B7-H1, Bioxcell) antibody and PEGPH20, mice were injected with a dose of 5 mg/kg (body mass) of anti-PD-L1 antibody in combination with PEGPH20 (n=15) twice a week for 4 weeks until they were sacrificed.
To address the potential role of HA stromal accumulation in the tumorigenesis of intestinal mesenchymal tumors in vivo, mouse tumor organoids (MTO) with mutations in Apc, Trp53, Kras, and Tgfbr2 (Tauriello et al., 2018) and with deletion of Prkci and Prkcz by CRISPR/Cas9 were characterized. MTO-sgPrkci/sgPrkcz recapitulated the observed phenotype in human organoids showing in vitro upregulation of Has1, Has2, and Has3 transcripts, increased expression of HA, and enrichment in EMT and TGFβ signaling signatures (FIGS. 8A-8E). […] Next, the impact of depleting HA on tumorigenesis was tested. To that end, MTO-sgPrkci/sgPrkcz or MTO-sgC were subcutaneously transplanted into syngeneic C57BL/6J mice and treated with a low dose of clinical-grade pegylated hyaluronidase (PEGPH20; 0.0375 mg/Kg), equivalent to a human dose evaluated in clinical trials, or with vehicle (FIG. 8F).

The test system of assay [2] is MTO-sgPrkci/sgPrkcz tumors. Put plainly: Subcutaneous sgPrkci/Prkcz MTO tumors: PEGPH20 combined with anti-PD-L1. The class given is in vivo, mouse. Here is the method:
FIGS. 13B-13F illustrate Subcutaneous injection of sgPrkci/Prkcz MTOs in WT mice treated twice a week with PEGPH20 (0.0375 mg/kg) and αPD-L1 (5 mg/kg) for 4 weeks (n:Veh=14, PEGPH20-treated=15 and PEGPH20-treated with αPD-L1=15). Experimental design (B); tumor volume (C); tumor weight (D); IHC for HA, αSMA, CD8, FOXP3, S100a8, and CD19 of tumors (E) and quantification (F). Scale bars, 100 μm. Results are shown as mean±SEM *p<0.05, **p<0.01, ***p<0.001, ****p<0.0001.
as §1

The test system of assay [3] is MTO-sgPrkci/sgPrkcz liver metastases. Put plainly: Liver metastasis model, intrasplenic injection of sgPrkci/Prkcz MTOs. Type of assay: in vivo, mouse. Particulars: 5 doses over 2.5 weeks. An excerpt:
CRC predominantly metastasizes to the liver, which is the leading cause of death. Five-year overall survival for metastatic CRC patients is only 14.7%. Furthermore, patients with metastatic liver disease do worse than those without liver disease across different types of cancer and are totally refractory to ICB. Based on data that PEGPH20 remodels the tumor microenvironment and enables ICB in primary MSS CRC, the potential role of targeting HA in liver metastasis was investigated. To directly test therapeutic effects on liver metastatic disease, MTO-sgPrkci/sgPrkcz was inoculated in the portal circulation of wild-type C57BL/6J mice and mice were for two weeks and a half (5 doses) with a low clinically relevant dose of PEGPH20 ([…]) or in combination with anti-PDL1 or/and anti-CTLA4 (FIG. 22A).
Intrasplenic injection of sgPrkci/Prkcz MTOs in WT mice. Mice were treated twice a week with Veh or PEGPH20 0.0375 mg/kg and/or αPD-L1 (5 mg/kg) and/or aCTLA4 (100 ug/dose) for 2.5 weeks (n: sgPrkci/Prkcz MTOs Veh-treated=7, sgPrkciiPrkcz MTOs PEGPH20-treated=7, sgPrkci/Prkcz MTOs PEGPH20 and αPD-L1-treated=7, and sgPrkci/Prkcz MTOs PEGPH20 and aCTLA4-treated=6).

Assay [4] concerns tumors from Prkci^fl/fl Prkcz^fl/fl Villin-cre (DKO) mice. Put plainly: scRNAseq and IHC of DKO mouse intestinal tumors treated with PVHA or Galunisertib. The class given is in vivo. Particulars: non-tumor area.

B1: PEGPH20: a PEGylated version of human recombinant PH20 hyaluronidase; clinical-grade pegylated hyaluronidase (Halozyme Therapeutics) (protein, UniProt P38567 36-490, looked up)
Hyaluronidase PH-20: LNFRAPPVIPNVPFLWAWNAPSEFCLGKFDEPLDMSLFSFIGSPRINATGQGVTIFYVDRLGYYPYIDSITGVTVNGGIPQKISLQDHLDKAKKDITFYMPVDNLGMAVIDWEEWRPTWARNWKPKDVYKNRSIELVQQQNVQLSLTEATEKAKQEFEKAGKDFLVETIKLGKLLRPNHLWGYYLFPDCYNHHYKKPGYNGSCFNVEIKRNDDLSWLWNESTALYPSIYLNTQQSPVAATLYVRNRVREAIRVSKIPDAKSPLPVFAYTRIVFTDQVLKFLSQDELVYTFGETVALGASGIVIWGTLSIMRSMKSCLLLDNYMETILNPYIINVTLAAKMCSQVLCQEQGVCIRKNWNSSDYLHLNPDNFAIQLEKGGKFTVRGKPTLEDLEQFSEKFYCSCYSTLSCKEKADVKDTDAVDVCIADGVCIDAFLKPPMETEEPQIFYNASPSTLS
modifications: PEGylated
Take B1: in assay [1] (GSEA of Quant-seq, treated versus Veh), the “signatures related to invasion, tumor progression, and desmoplasia (EMT, myogenesis, angiogenesis, TGFβ signaling, stromal activation, CMS4 subtype)” value is “decrease”. In addition, the “IFN and allograft rejection signatures” value in assay [1] (GSEA of RNAseq, allografts from MTO-sgPrkci/sgPrkcz) is reported as “enrichment”. The “tumor volume and weight” value in assay [1] (PEGPH20 0.0375 mg/Kg twice a week, 3 weeks) is on record as “sensitive”. Further, the “desmoplastic phenotype: expression of HA, collagen, and αSMA+” value in assay [1] (PEGPH20 0.0375 mg/Kg twice a week, 3 weeks, IHC) is “reverted”. For the same molecule, in assay [2] (IHC CD8, CD19), the “CD8+ T and B cells in the tumor” value is “sufficient to bring”. For the same molecule, the “amount of immunosuppressive myeloid and Tregs” value in assay [2] (IHC S100a8, FOXP3) was “reduce”. In assay [2] (IHC, PEGPH20 0.0375 mg/kg, 4 weeks), the “HA content and intensity of αSMA+ stromal staining” value was “reduced”. For the same molecule, in assay [3], the “number of established liver tumors and volume of those tumors” value is “reducing”. In assay [3] (PEGPH20 0.0375 mg/kg, αPD-L1 5 mg/kg, aCTLA4 100 ug/dose), the “metastatic burden of MTO-sgPrkci/sgPrkcz” value is recorded as “markedly decreased”. In assay [4], the “Olfm4 (Stem cell marker) IHC” value is given as “increase”.
